Assay results from US20220275103A1 (CENTRICSBIO, published 2022).

B1: CL10 (antibody, V domains shown)
VH: EVQLLESGGGLVQPGGSLRLSCAASGFTFSSYGMHWVRQAPGKGLEWVSAISGSGGSTYYADSVKGRFTISRDNSKNTLYLQMNSLRAEDTAVYYCASGYGLMDVWGQGTLVTVSS
VL: QSVLTQPPSASGTPGQRVTISCTRSSGIIASNYVQWYQQLPGTAPKLLIYRNNQRPSGVPDRFSGSKSGTSASLAISGLRSEDEADYYCSSYAGNNNLVFGGGTKLTVL
B2: CL7 (antibody, V domains shown)
VH: EVQLLESGGGLVQPGGSLRLSCAASGFTFSRYAMSWVRQAPGKGLEWVSAISGSGGSTYYADSVKGRFTISRDNSKNTLYLQMNSLRAEDTAVYYCARSSQGIFDIWGQGTLVTVSS
VL: QSVLTQPPSASGTPGQRVTISCSGNNIGTRRVHWYQQLPDTAPKLLIYSKNNRPSGVPDRFSGSKSGTSASLAISGLRSEDEADYYCAAWDDSLSGPVFGGGTKLTVL
notes: VH3VL1 phage library clone; also called anti-CD300c monoclonal antibody CL7; CB301 antibody CL7
B3: SL18 (antibody, V domains shown)
VH: RVQLLESGGGLVQPGGSLRLSCAASGFTFSDYHMHWVRQAPGKGLEWVSTISSSGGYTYYAESVKSRFTISRDNSKNTLYLQMNSLRAEDTAVYYCARSIRLPLDYWGQGTLVTVSS
VL: QSVLTQPPSASGTPGQRVTISCSGNNIGSKGVHWYQQLPGTAPKLLIYEDSKRPSGVRDRFSGSKSGTSASLAISGLRSEDEADYYCQSYDSTKGVVFGGGTKLTVL

Tests used:
mouse CD300c antigen = target: T1, mouse CD300c antigen (mouse); test: cell-based or functional assay
T1 sequence (A2A7V7 whole entry, looked up): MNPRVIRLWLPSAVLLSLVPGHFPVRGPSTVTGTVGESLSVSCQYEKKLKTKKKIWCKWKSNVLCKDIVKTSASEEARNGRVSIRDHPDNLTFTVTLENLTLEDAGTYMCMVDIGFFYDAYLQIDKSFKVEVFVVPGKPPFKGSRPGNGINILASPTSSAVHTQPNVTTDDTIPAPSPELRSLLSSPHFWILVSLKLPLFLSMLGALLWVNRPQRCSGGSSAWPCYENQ

[1] = target: T2, CD273[PD-L2] (Sino Biological) (UniProt Q9BQ51 20-219, limits assumed); test: binding ELISA, antigens coated at 8 ug/mL, HRP anti-Fc IgG, O.D 450 nm
T2 sequence (looked up): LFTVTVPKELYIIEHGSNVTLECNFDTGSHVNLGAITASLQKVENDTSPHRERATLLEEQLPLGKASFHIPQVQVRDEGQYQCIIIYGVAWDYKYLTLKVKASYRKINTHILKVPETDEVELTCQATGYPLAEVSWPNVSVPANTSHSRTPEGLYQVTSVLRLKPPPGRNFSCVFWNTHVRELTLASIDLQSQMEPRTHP
Procedure: (§1) Binding ELISA was performed to identify that the anti-CD300c monoclonal antibody CL7 specifically binds only to CD300c without binding to other B7 family proteins. More specifically, each of CD300c antigen, CD300a antigen, or seven B7 family protein antigens (PD-L1 [B7-H1] (Sino Biological), ICOS Ligand[B7-H2] (Sino Biological), CD276[B7-H3] (Sino Biological), B7-H4 (Sino Biological), CD80[B7-1] (Sino Biological), CD86[B7-2] (Sino Biological), CD273[PD-L2] (Sino Biological)) in a coating buffer (0.1 M sodium carbonate, pH 9.0) was coated on an ELISA plate at a concentration of 8 μg/mL per well, and then incubation was performed at 2° C. to 8° C. overnight so that the antigen bound to the plate. The unbound antigen was removed by performing washing with PBST three times, and then […] of blocking buffer (5% skim milk in PBST) was added to each well. Subsequently, blocking was performed at room temperature for 1 hour, and then washing was performed again with PBST. Thereafter, CL7 was diluted in quadruplicate with PBS, and subjected to reaction with the antigen at room temperature for 1 hour for antigen binding. 1 hour later, washing with PBST was performed three times. Then, a secondary antibody (HRP-conjugated anti-Fc IgG) diluted to 4 μg/mL in blocking buffer was added thereto, and reaction was allowed to proceed at room temperature for 1 hour. Subsequently, the unbound antibody for detection was removed using PBST, and then a TMB solution was added thereto. Reaction was allowed to proceed for 10 minutes for development. Then, 2 N sulfuric acid solution was added to terminate the development, and the absorbance was measured at 450 nm to identify the antibody that specifically binds to the CD300c antigen.

B7-H4 (Sino Biological) = target: T3, B7-H4 (Sino Biological) (UniProt Q7Z7D3 25-258, limits assumed); test: as above
T3 sequence (looked up): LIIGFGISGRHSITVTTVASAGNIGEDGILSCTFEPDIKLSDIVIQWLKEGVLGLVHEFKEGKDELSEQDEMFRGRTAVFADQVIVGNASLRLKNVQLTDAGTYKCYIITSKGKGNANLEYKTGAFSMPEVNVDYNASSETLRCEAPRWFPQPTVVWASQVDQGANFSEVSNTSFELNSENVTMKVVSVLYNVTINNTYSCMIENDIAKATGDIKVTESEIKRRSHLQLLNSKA
Procedure: as §1

[2] = target: T4, CD276[B7-H3] (Sino Biological) (UniProt Q5ZPR3 29-461, limits assumed); test: as above
T4 sequence (looked up): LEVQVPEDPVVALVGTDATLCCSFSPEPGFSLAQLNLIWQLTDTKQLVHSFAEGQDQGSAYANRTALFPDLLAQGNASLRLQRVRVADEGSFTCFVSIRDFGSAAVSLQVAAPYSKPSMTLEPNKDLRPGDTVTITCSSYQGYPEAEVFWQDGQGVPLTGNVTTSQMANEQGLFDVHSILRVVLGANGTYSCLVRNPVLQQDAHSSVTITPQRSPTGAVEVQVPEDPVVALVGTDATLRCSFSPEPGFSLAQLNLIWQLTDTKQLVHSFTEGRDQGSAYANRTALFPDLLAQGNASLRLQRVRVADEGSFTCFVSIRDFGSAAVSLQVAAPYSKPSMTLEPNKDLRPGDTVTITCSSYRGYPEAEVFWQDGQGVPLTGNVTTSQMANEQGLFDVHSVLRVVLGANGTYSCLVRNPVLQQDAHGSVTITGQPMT
Procedure: as §1

[3] = target: T5, CD86[B7-2] (Sino Biological) (UniProt P42081 24-247, limits assumed); test: as above
T5 sequence (looked up): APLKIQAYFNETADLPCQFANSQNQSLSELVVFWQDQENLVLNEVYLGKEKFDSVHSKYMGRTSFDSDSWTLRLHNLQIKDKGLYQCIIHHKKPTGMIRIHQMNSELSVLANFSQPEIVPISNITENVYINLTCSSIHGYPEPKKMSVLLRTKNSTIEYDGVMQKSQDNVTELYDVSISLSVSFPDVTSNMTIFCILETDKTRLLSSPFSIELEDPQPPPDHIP
Procedure: as §1

[4] = target: T6, ICOS Ligand[B7-H2] (Sino Biological) (UniProt O75144 19-258, limits assumed); test: as above
T6 sequence (looked up): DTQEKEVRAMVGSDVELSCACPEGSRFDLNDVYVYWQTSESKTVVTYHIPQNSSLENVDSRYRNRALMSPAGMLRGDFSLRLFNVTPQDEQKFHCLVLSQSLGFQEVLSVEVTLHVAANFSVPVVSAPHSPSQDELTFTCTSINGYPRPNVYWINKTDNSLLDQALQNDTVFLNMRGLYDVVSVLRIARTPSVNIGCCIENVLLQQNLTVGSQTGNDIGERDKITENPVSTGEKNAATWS
Procedure: as §1

[5] = target: PD-L1 [B7-H1] (Sino Biological) (UniProt Q9NZQ7 19-239, limits assumed); test: as above
Chain of PD-L1 [B7-H1] (Sino Biological) (Q9NZQ7 19-239 limits assumed): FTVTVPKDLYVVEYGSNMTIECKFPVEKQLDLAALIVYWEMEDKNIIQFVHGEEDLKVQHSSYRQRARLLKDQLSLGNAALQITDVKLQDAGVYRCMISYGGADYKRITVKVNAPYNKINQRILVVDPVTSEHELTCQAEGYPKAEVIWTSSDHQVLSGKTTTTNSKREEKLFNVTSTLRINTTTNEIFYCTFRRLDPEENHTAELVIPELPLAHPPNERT
Procedure: as §1

[6] = target: T7, CD300a antigen (12449-H08H, Sino Biological) (UniProt Q9UGN4 18-180); test: as above
T7 sequence (looked up): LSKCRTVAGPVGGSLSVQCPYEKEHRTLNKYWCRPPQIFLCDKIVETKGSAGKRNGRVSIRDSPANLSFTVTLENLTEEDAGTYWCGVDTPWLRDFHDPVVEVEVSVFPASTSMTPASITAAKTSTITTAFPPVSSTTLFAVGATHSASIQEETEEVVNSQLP
Procedure: as §1

[7] = target: T8, CD80[B7-1] (Sino Biological) (UniProt P33681 35-242, limits assumed); test: as above
T8 sequence (looked up): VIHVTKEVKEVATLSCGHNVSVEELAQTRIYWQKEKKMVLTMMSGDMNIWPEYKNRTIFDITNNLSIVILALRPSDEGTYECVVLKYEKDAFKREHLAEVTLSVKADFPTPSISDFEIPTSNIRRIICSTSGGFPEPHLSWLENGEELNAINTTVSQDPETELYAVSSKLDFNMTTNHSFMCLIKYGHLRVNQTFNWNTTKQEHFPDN
Procedure: as §1

Binder	cancer cell proliferation inhibitory effect on CT26 mouse colorectal cancer cells (CCK-8, 10 ug/mL antibody, 5 days), higher than the control group (mouse CD300c antigen)	binding result [1]	binding result (B7-H4 (Sino Biological))	binding result [2]	binding result [3]	binding result [4]	binding result [5]	binding result [6]	binding result [7]
B1	15%								
B2	66%	no binding (tested: log10 about 0.4 (about 2.5 ug/ml))	no binding (tested: log10 about 0.4 (about 2.5 ug/ml))	no binding (tested: log10 about 0.4 (about 2.5 ug/ml))	no binding (tested: log10 about 0.4 (about 2.5 ug/ml))	no binding (tested: log10 about 0.4 (about 2.5 ug/ml))	no binding (tested: log10 about 0.4 (about 2.5 ug/ml))	no binding (tested: log10 about 0.4 (about 2.5 ug/ml))	no binding (tested: log10 about 0.4 (about 2.5 ug/ml))
B3	38%								
